{"source": "paper PMC11947305", "about": "(Nature Communications, 2025)", "binders": {"B1": {"name": "His-tagged mouse Rab9A Q66L (residues 2-199) (natural protein)", "chain": "AGKSSLFKIILLGDGGVGKSSLMNRYVTNKFDSQLFHTIGVEFLNKDLEVDGHFVTMQIWDTAGLERFRSLRTPFYRGSDCCLLTFSVDDSQSFQNLSNWKKEFIYYADVKEPESFPFVILGNKTDIKERQVSTEEAQAWCKDNGDYPYFETSAKDSTNVAAAFEEAVRRILATEDRSEHLIQTDTVNLHRKPKPNSS"}, "B2": {"name": "HPS1 (untagged human HPS1, residues 1-700) (natural protein)", "chain": "MKCVLVATEGAEVLFYWTDQEFEESLRLKFGQSENEEEELPALEDQLSTLLAPVIISSMTMLEKLSDTYTCFSTENGNFLYVLHLFGECLFIAINGDHTESEGDLRRKLYVLKYLFEVHFGLVTVDGHLIRKELRPPDLAQRVQLWEHFQSLLWTYSRLREQEQCFAVEALERLIHPQLCELCIEALERHVIQAVNTSPERGGEEALHAFLLVHSKLLAFYSSHSASSLRPADLLALILLVQDLYPSESTAEDDIQPSPRRARSSQNIPVQQAWSPHSTGPTGGSSAETETDSFSLPEEYFTPAPSPGDQSSGSTIWLEGGTPPMDALQIAEDTLQTLVPHCPVPSGPRRIFLDANVKESYCPLVPHTMYCLPLWQGINLVLLTRSPSAPLALVLSQLMDGFSMLEKKLKEGPEPGASLRSQPLVGDLRQRMDKFVKNRGAQEIQSTWLEFKAKAFSKSEPGSSWELLQACGKLKRQLCAIYRLNFLTTAPSRGGPHLPQHLQDQVQRLMREKLTDWKDFLLVKSRRNITMVSYLEDFPGLVHFIYVDRTTGQMVAPSLNCSQKTSSELGKGPLAAFVKTKVWSLIQLARRYLQKGYTTLLFQEGDFYCSYFLWFENDMGYKLQMIEVPVLSDDSVPIGMLGGDYYRKLLRYYSKNRPTEAVRCYELLALHLSVIPTDLLVQQAGQLARRLWEASRIPLL"}, "B3": {"name": "GST-tagged human HPS4 Δ289-518 (natural protein)", "chain": "MATSTSTEAKSASWWNYFFLYDGSKVKEEGDPTRAGICYFYPSQTLLDQQELLCGQIAGVVRCVSDISDSPPTLVRLRKLKFAIKVDGDYLWVLGCAVELPDVSCKRFLDQLVGFFNFYNGPVSLAYENCSQEELSTEWDTFIEQILKNTSDLHKIFNSLWNLDQTKVEPLLLLKAARILQTCQRSPHILAGCILYKGLIVSTQLPPSLTAKVLLHRTAPQEQRLPTGEDAPQEHGAALPPNVQIIPVFVTKEEAISLHEFPVEQMTRSLASPAGLQDGSAQHHPKGGGPSADGISSRLTPAESCMGLVRMNLYTHCVKGLVLSLLAEEPLLGDSAAIEEVYHSSLASLNGLEVHLKETLPRDEAASTSSTYNFTHYDRIQSLLMANLPQVATPQDRRFLQAVSLMHSEFAQLPALYEMTVRNASTAVYACCNPIQETYFQQLAPAARSSGFPNPQDGAFSLSGKAKQKLLKHGVNLL"}}, "key": {"[1]": {"molecular_target": "T1, Flag-tagged HPS4 wild-type (human, UniProt Q9NQG7 1-708)", "T1 sequence": "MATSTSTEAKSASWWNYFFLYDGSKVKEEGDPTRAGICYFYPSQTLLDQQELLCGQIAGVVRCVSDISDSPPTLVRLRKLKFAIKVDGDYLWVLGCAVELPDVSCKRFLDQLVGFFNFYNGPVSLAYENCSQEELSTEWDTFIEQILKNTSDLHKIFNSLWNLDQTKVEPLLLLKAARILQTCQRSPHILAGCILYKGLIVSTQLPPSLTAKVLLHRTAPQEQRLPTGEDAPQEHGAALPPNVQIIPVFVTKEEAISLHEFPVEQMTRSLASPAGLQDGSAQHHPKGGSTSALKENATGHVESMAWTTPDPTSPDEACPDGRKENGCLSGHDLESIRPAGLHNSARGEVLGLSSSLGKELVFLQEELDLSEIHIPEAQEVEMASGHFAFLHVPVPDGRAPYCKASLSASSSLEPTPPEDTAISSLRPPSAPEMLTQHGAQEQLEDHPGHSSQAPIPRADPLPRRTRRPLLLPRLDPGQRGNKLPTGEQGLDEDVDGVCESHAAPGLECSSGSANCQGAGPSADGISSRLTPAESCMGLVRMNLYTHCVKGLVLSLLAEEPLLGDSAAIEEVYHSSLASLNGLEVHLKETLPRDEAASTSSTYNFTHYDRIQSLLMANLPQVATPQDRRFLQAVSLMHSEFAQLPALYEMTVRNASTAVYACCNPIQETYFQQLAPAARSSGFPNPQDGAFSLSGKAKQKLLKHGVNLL", "assay": "pull-down"}, "[2]": {"molecular_target": "B3", "assay": "SEC"}, "[3]": {"molecular_target": "T2, GST-tagged human HPS4 (residues 1-708) (human, UniProt Q9NQG7 1-708)", "T2 sequence": "T1 sequence", "assay": "SEC"}, "[4]": {"molecular_target": "B2", "assay": "cryo-EM structure"}}}
{"binder": "B1", "values": [{"measurement": "binding result", "setting": "[1]", "result": "binds"}]}
{"binder": "B2", "values": [{"measurement": "stoichiometry N", "setting": "[2]", "result": 1}, {"measurement": "binding result", "setting": "[3]", "result": "binds"}]}
{"binder": "B3", "values": [{"measurement": "binding result", "setting": "[4]", "result": "binds"}]}
